This data set in a line: label from the status in PepcDB records.

The source of these data is a protein production outcome set (Wang et al. 2014).

As to “MGFTTDKIRTIAVAGHGQSGKTSLVEHLLYVSGLIAKAESVDSGKTVTDYSQEEIDRKISIYSTLVNLQKDDKLINIWDTPGASDFIGEVIAAFRSSEAALIVLDGRSGVQIETIKYWRDLDRRNKPRLVFANKMDEARADFDNCIADVKKQFQVDVFPVSFPMGTGDNFKGVVDVLHGKAYKIEDGKEVETEIPAEYQDKYKDALEVLAGAAAEGDEELLVKFIDEGELSPEEISRGLTLAMADNRIVPLFAGSAINNSGLNSLLRFISEILPSPEGALERGVTKEGEEISVKLDSSAPLSAIVVKTSNDQFSGRLSYVKVITGTLSADSEVYNLREEKKERVGKIYKTLGKKLTEVKEIAAGDIGVLVKLTSTKTNDTLAASADVIPFVRLRTPEPIYSLAVSAIDKKNDDKVSEQLFKACEEDMTLSFAFNAETKQNVLSGMGDLHTSIVLDKVKNQSKIEIQTSIPRIAYRETIQRKSQAEYTHKKQSGGHGQFGRVVLAIEPLPRGEKYKFTNAVFGGAISKGYIPGVEKGVIEAMEKGVSAGYPVVDVAVTVLDGKEHPVDSSEMAFKIAARNAFKDAMRNAGPILLEPIMNLTVFVETSYLGDIMSDLSSRRGRILGQSSPASGIEEIRAQVPHKELLRYAIDLRSMTSGTGSFEMSFDHYDPISGKIADEIIAEAKAFMEEQEE”, the protein production result is listed as “failed”.
Take “MGGGPALNRDSSRHARPFISSPVKTLAIIPAFNEAQAIGPVLGDLPDGWVDEVVVVNNASTDATKANARAAGATVVDEPQQGYGAACLRGIAYAETRQPDVVVFLDGDYSDHPEELPRLVEPIAADEADFVVGSRIRGDAEPGALLPQAQVGNRFACSLMARLWGADYTDLGPFRAIRFRDLLALDMQDETFGWTIEMQIRALEAGLRVEEVPVSYRRGIGPSKITGTLSGTVKASAKILWTIGRMAATTHRRAPRLRERVDRARTDAPTPNPGGLEHHHHHH”: the protein production entry is listed as “failed”.
With “MGGGRQILHTLEQDVYFSHAHRVEIPASVTAHLFYQHFGYRPKPGGIYPDDEGLYRLEKFPHESFH”, the protein production entry is reported as “failed”.
“MGGHFWPPEPYTVFMWGSPWEADSPRVKLRGREKGRQTEGGAFPLVSSALSGDPRFFSPTTPPAEPIVVRLKEVRLQRDDFEILKVIGRGAFSEVAVVKMKQTGQVYAMKIMNKWDMLKRGEVSCFREERDVLVNGDRRWITQLHFAFQDENYLYLVMEYYVGGDLLTLLSKFGERIPAEMARFYLAEIVMAIDSVHRLGYVHRDIKPDNILLDRCGHIRLADFGSCLKLRADGTVRSLVAVGTPDYLSPEILQAV”: the protein production entry was “failed”.
For “MGGIYRLSLKSTEATAERLSCDTRCNYEDRDLAYSPDGRWLAIARRFSNISEDIFIRDLASAHEKRLTQGLEDIRGLSWTPDSQALVFATEDSGSSNGFTLDINTAQIRSLDVEGMSYPSSVSAEGELVYHQYHRQFQMAYFSLGDKVPGSLFPLLYSGVSHRNPDYSPEAKRIVFVSSETGYNEIWTSDINGQKLEQLTQLKSRVAYPRWSPDGSRIAFIAPDDRNEGNRIFILDLTNKNITALASSYHNHGRPSWNWQGTAVLASTADGITEFYLDNRAPRVISSLSMAVGFAKSATELVFSRDGENGLWQINLTQPEHVEQLISTDAFRAGNNWVLTASGVYFKSSNGHEQLLNYWEASSQQVTSLLRVPRSSLSGFGSMTYIPEANRLVMTLDGFPQRDIILLKHKLLKLEHHHHHH”, the protein production entry was “failed”.
Consider “MGGKLVSFIRSRLEIVQNIAAEDEGCKKAYYCMGSPLFALNAERMENNLVTLSGGISINKQLQKKGKPGVNVSPAFINEHNPEAIFISSFLSRPLNEFYELCQKYGIHADAVKKRQVYAVPAAWDFGNPRWILGLLYITDKLHPGKLEHHHHHH”, for which the protein production result is listed as “failed”.
As to “MGGNRQQEIASGCCLVAEQHDQVVAYASYQPTGLLGQPLLTYLCVAPAMRGQGIAKQLVETIQGQARGRMLLSSTEDWCLASQKIFTDLGWRKIGALAGVNKDGSTEYFYAVDLNH”, the protein production entry is “failed”.
For the sequence “MGGSNMKLDFSVAVHSILYLDAHRDSKVASRELAQSLHLNPVMIRNILSVLHKHGYLTGTVGKNGGYQLDLALADMNLGDLYDLTIPPTISYARFITGPSKTDEQADQSPIAANISETLTDLFTVADRQYRAYYHQFTMADLQADLNHHGTFLQHEQDSES”, the protein production result is listed as “not failed”.
For the sequence “MGHHHHHHSHESVVPARMAEMARCIRERDFPSFAQLTMKDSNQFHATCLDTFPPISYLNAISWRIIHLVHRFNAHHGDTKVAYTFDAGPNAVIFTLDDTVAEFVAAVWHGFPPGSNGD”, the protein production entry is on record as “failed”.
As for “MGHHHHHHSHGFNKFGGPRDQGSRHDSEQDNSDNNTIFVQGLGENVTIESVADYFKQIGIIKTNKKTGQPMINLYTDRETGKLKGEATVSFDDPPSAKAAIDWFDGKEFSGNPIKVSFAT”, the protein production entry is on record as “failed”.
For the sequence “MGHHHHHHSHHTTEAKNDLRVGGRFVSKMEAKDGSFGFDFGGTYNKVRLYEFISYIMDDDRSVEITFKPEKDKTYIVESFEAEKSNPIDLQQKGWQAILDNFKKYVEENKLRGREK”, the protein production entry is “failed”.
With “MGHHHHHHSHMANGTAGTKVALRKTKQAAEKISADKISKEALLECADLLSSALTEPVPNSQLVDTGHQLLDYCSGYVDCIPQTRNKFAFREAVSKLELSLQELQVSSAAAGVPGTNPVLNNLLSCVQEISDVVQR”, the protein production entry is listed as “failed”.
Take “MGHHHHHHSHMATGQDRVVALVDMDCFFVQVEQRQNPHLRNKPCAVVQYKSWKGGGIIAVSYEARAFGVTRSMWADDAKKLCPDLLLAQVRESRGKANLTKYREASVEVMEIMSRFAVIERASIDEAYVDLTSAVQERLQKLQGQPISADLLPSTYIEGLPQGPTTAEETVQKEGMRKQGLFQWLDSLQIDNLTSPDLQLTVGAVIVEEMRAAIERETGFQCSAGISHNKVLAKLACGLNKPNRQTLVSHGSVPQLFSQMPIRKIRSLGGKLGASVIEILGIEYMGELTQFTESQLQSHFGEKNGSWLYAMCRGIEHDPVKPRQLPKTIGCSKNFPGKTALATREQVQWWLLQLAQELEERLTKDRNDNDRVATQLVVSIRVQGDKRLSSLRRCCALTRYDAHKMSHDAFTVIKNCNTSGIQTEWSPPLTMLFLCATKFSASAP”: the protein production result is listed as “failed”.
As for “MGHHHHHHSHMDEQSVESIAEVFRCFICMEKLRDARLCPHCSKLCCFSCIRRWLTEQRAQCPHCRAPLQLRELVNCRWAEEVTQQLDTLQLCSLTKHEEN”, the entry is “not failed”; as for “MGHHHHHHSHMGEIESYCNKELGPLPTKAPTLSKNVLDLFSLKGKVASVTGSSGGIGWAVAEAYAQAGADVAIWYNSHPADEKAEHLQKTYGVHSKAYKCNISDPKSVEETISQQEKDFGTIDVFVANAGVTWTQGPEIDVDNYDSWNKIISVDLNGVYYCSHNIGKIFKKNGKGSLIITSSISGKIVNIPQLQAPYNTAKAACTHLAKSLAIEWAPFARVNTISPGYIDTDITDFASKDMKAKWWQLTPLGREGLTQELVGGYLYLASNASTFTTGSDVVIDGGYTCP”, “failed”; as for “MGHHHHHHSHMGKKLLVLDVDYTLFDHRSCAETGVELMRPYLHEFLTSAYEDYDIVIWSATNMKWIEAKMKELGVSTNANYKITFMLDSAAMITVHTPRRGLIDVKPLGVIWGKFSEFYSKKNTIMFDDIGRNFLMNPQNGLKIRPFMKAHLNRDKDKELLKLTQYLKEIAKLDDFLDLNHKY”, “failed”.
Take “MGHHHHHHSHMGRCYNNIVIDASIEAVWQQIGNFHDMSWAKGVITSLVKVGPASGTEVGAKRILNDAIHETLVSLDSSNYTFTYSIDDGPDAIAKSAVDNYLGMVNLSESSTGVLVEWSSSFTSDNEKAVTEFCDP”: the protein production entry is recorded as “failed”.
Consider “MGHHHHHHSHMIDSIRVEGFRGLKELELSSLRRINVIVGRNNSGKSTLLEALSLFLGSSDPGTFGNVLHEILIWRGWYGIQTVDDLFYNGGDSFSISSTGKTLEALNSKHSLEFKLNGEPFYKIDRESIRRLASQAVLLARFSPKENFEFLTPLTFRRFGYAESLYSYAYERKVVKDSIKVLNEAYPEVEGFSPLLKEDNWVLYVETKYGVYPYYLMGEGFKSAMIISFLSSLLRDGVLLIDSAEAFHHP”, for which the protein production result is “failed”.
Turning to “MGHHHHHHSHMIESGIWSRMSEMIRSSGHSHHCSPQEYRFLPPVGDDDLPGDLQSLSWLTAVDVPRLQQMANGRIDLGSSGVTHPHPGALAGTADLHVGAAPRPLLRRSQTAVVPRGVLGLSPIGNHRASAEQMNQFPAGGQASSGLQEMPQLYSPATQIPFPLPLGSQQCPPAGLYGSPFSARPSYPQAHGAMHASQEPHPKHYPKPIYSYSCLIAMALKNSKTGSLPVSEIYSFMKEHFPYFKTAPDGWKNSVRHNLSLNKCFEKVETKSSGSSRKGCLWALNLARIDKMEEEMHKWKRKDLAAIHRSMANPEELDKLISDRPESCRRPGKRGEPKAPMLTHATTVAMAHSCLAISQLPPKPLMTLSLQSVPLHHQLQPQAHLAPDSPAPAQTPPLHALPSLSPGPLPQPAMGRVPGDFLNINSDMNTEVDALDPSIMDFALQGNLWEEMKEDSFSLDTLEAFGDSPLGCDLGAPSLTPVSGNSDQSFPDVQVTGLYAAYSTAADGVAPSAANSAQYLGTPGNKPIALL”, the protein production entry is “failed”.
As for “MGHHHHHHSHMKPSGEDQAALAAGPWEECFQAAVQLALRAGQIIRKALTEEKRVSTKTSAADLVTETDHLVEDLIISELRERFPSHRFIAEEAAASGAKCVLTHSPTWIIDPIDGTCNFVHRFPTVAVSIGFAVRQELEFGVIYHCTEERLYTGRRGRGAFCNGQRLRVSGETDLSKALVLTEIGPKRDPATLKLFLSNMERLLHAKAHGVRVIGSSTLALCHLASGAADAYYQFGLHCWDLAAATVIIREAGGIVIDTSGGPLDLMACRVVAASTREMAMLIAQALQTINYGRDDEK”, the entry is “failed”.
With “MGHHHHHHSHMQDRRSVCIFLPNDESLNIIINVKILCHQLLVQVCDLLRLKDCHLFGLSVIQNNEHVYME”, the protein production result is on record as “not failed”.
As for “MGHHHHHHSHMSFVECPYHSPAERLVAEADEGGPSAITGMGLCFRCLLFSFSGRSGVEGGRVDLNVFGSLGLQPWIGSSRCWGGPCSSALRCGWFSSWPPPSKSAIPIGGGSRGAGRVSRWPPPHWLEAWRVSPRPL”, the protein production result is “failed”.
Turning to “MGHHHHHHSHMSIPSSQYGFVFNKQSGLKLRNDLPVHKPKAGQLLLKVDAVGLCHSDLHVIYEGLDCGDNYVMGHEIAGTVAAVGDDVINYKVGDRVACVGPNGCGGCKYCRGAIDNVCKNAFGDWFGLGYDGGYQQYLLVTRPRNLSRIPDNVSADVAAASTDAVLTPYHAIKMAQVSPTSNILLIGAGGLGGNAIQVAKAFGAKVTVLDKKKEARDQAKKLGADAVYETLPESISPGSFSACFDFVSVQATFDVCQKYVEPKGVIMPVGLGAPNLSFNLGDLALREIRILGSFWGTTNDLDDVLKLVSEGKVKPVVRSAKLKELPEYIEKLRNNAYEGRVVFNP”, the protein production result is “not failed”.
Consider “MGHHHHHHSHMTDCEFGYIYRLAQDYLQCVLQIPQPGSGPSKTSRVLQNVAFSVQKEVEKNLKSCLDNVNVVSVDTARTLFNQVMEKEFEDGIINWGRIVTIFAFEGILIKKLLRQQIAPDVDTYKEISYFVAEFIMNNTGEWIRQNGGWENGFVKKFEPK”, for which the protein production result was “not failed”.
